Target: recombinant human IL-6 (human, UniProt P05231 30-212)
Test: SPR, IL-6 on CM5 chip, Fab lysate, 25 C
Description: Three ranges of antigen density (100-150 RU, 300-400 RU, 400-600 RU) were obtained by using variable flow times for each chip channel, later blocked with ethanolamine. Supernatants of the 96-well filtered culture lysates were injected at 50 μL/min for 120 seconds. Fitting of dissociation curves (300 seconds) to single exponential decay curve was used for the determination of dissociation rates (koff). Chip surfaces were regenerated with 10 mM Glycine pH 1.7 solution injected at 50 μL/min during 60 seconds after every cycle of sample binding and dissociation.

recombinant human IL-6, sequence (P05231 30-212 limits assumed): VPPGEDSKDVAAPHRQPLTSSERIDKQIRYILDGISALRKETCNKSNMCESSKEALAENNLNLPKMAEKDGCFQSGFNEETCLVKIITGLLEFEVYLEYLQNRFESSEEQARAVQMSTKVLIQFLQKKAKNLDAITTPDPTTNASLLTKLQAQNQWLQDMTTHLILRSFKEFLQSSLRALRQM

B1: anti-IL-6 Fab, heavy chain F27P (Fab, V domains shown)
VH: EVQLVESGGGLVQPGGSLRLSCAASGPTFSPFAMSWVRQAPGKGLEWVAKISPGGSWTYYSDTVTGRFTFSLDTSKSTAYLQMNSLRAEDTAVYYCARQLWGYYALDIWGQGTLVTVSS
VL: DIQLTQSPSSLSASVGDRVTITCSASISVSYMYWYQQKPGKAPKLLIYDMSNLASGVPSRFSGSGSGTDFTLTISSLQPEDFATYYCMQWSGYPYTFGQGTKVEIK
notes: see m39
**Q.** B1 was tested. Which koff did it give?
**A.** The koff was 0.00418 s⁻¹.

B2: anti-IL-6 Fab, heavy chain S30Y (Fab, V domains shown)
VH: EVQLVESGGGLVQPGGSLRLSCAASGFTFYPFAMSWVRQAPGKGLEWVAKISPGGSWTYYSDTVTGRFTFSLDTSKSTAYLQMNSLRAEDTAVYYCARQLWGYYALDIWGQGTLVTVSS
VL: DIQLTQSPSSLSASVGDRVTITCSASISVSYMYWYQQKPGKAPKLLIYDMSNLASGVPSRFSGSGSGTDFTLTISSLQPEDFATYYCMQWSGYPYTFGQGTKVEIK
notes: see m39
**Q.** With B2 as the binder, how does the koff read?
**A.** Its koff is 0.00352 s⁻¹.

B3: anti-IL-6 Fab, heavy chain F29H (Fab, V domains shown)
VH: EVQLVESGGGLVQPGGSLRLSCAASGFTHSPFAMSWVRQAPGKGLEWVAKISPGGSWTYYSDTVTGRFTFSLDTSKSTAYLQMNSLRAEDTAVYYCARQLWGYYALDIWGQGTLVTVSS
VL: DIQLTQSPSSLSASVGDRVTITCSASISVSYMYWYQQKPGKAPKLLIYDMSNLASGVPSRFSGSGSGTDFTLTISSLQPEDFATYYCMQWSGYPYTFGQGTKVEIK
notes: see m39
**Q.** For B3, which koff is on record?
**A.** Its koff is 0.00524 s⁻¹.

B4: anti-IL-6 Fab, heavy chain I51R (Fab, V domains shown)
VH: EVQLVESGGGLVQPGGSLRLSCAASGFTFSPFAMSWVRQAPGKGLEWVAKRSPGGSWTYYSDTVTGRFTFSLDTSKSTAYLQMNSLRAEDTAVYYCARQLWGYYALDIWGQGTLVTVSS
VL: DIQLTQSPSSLSASVGDRVTITCSASISVSYMYWYQQKPGKAPKLLIYDMSNLASGVPSRFSGSGSGTDFTLTISSLQPEDFATYYCMQWSGYPYTFGQGTKVEIK
notes: see m39
**Q.** How did the koff turn out when B4 was run?
**A.** Its koff is 0.00315 s⁻¹.

B5: anti-IL-6 Fab, heavy chain G66E (Fab, V domains shown)
VH: EVQLVESGGGLVQPGGSLRLSCAASGFTFSPFAMSWVRQAPGKGLEWVAKISPGGSWTYYSDTVTERFTFSLDTSKSTAYLQMNSLRAEDTAVYYCARQLWGYYALDIWGQGTLVTVSS
VL: DIQLTQSPSSLSASVGDRVTITCSASISVSYMYWYQQKPGKAPKLLIYDMSNLASGVPSRFSGSGSGTDFTLTISSLQPEDFATYYCMQWSGYPYTFGQGTKVEIK
notes: see m39
**Q.** For B5, which koff is on record?
**A.** The koff was 0.00505 s⁻¹.

B6: anti-IL-6 Fab, heavy chain F32V (Fab, V domains shown)
VH: EVQLVESGGGLVQPGGSLRLSCAASGFTFSPVAMSWVRQAPGKGLEWVAKISPGGSWTYYSDTVTGRFTFSLDTSKSTAYLQMNSLRAEDTAVYYCARQLWGYYALDIWGQGTLVTVSS
VL: DIQLTQSPSSLSASVGDRVTITCSASISVSYMYWYQQKPGKAPKLLIYDMSNLASGVPSRFSGSGSGTDFTLTISSLQPEDFATYYCMQWSGYPYTFGQGTKVEIK
notes: see m39
**Q.** B6 was tested. Which koff did it give?
**A.** Its koff is 0.00541 s⁻¹.

B7: anti-IL-6 Fab, heavy chain R98G (Fab, V domains shown)
VH: EVQLVESGGGLVQPGGSLRLSCAASGFTFSPFAMSWVRQAPGKGLEWVAKISPGGSWTYYSDTVTGRFTFSLDTSKSTAYLQMNSLRAEDTAVYYCAGQLWGYYALDIWGQGTLVTVSS
VL: DIQLTQSPSSLSASVGDRVTITCSASISVSYMYWYQQKPGKAPKLLIYDMSNLASGVPSRFSGSGSGTDFTLTISSLQPEDFATYYCMQWSGYPYTFGQGTKVEIK
notes: see m39
**Q.** B7 was tested. Which koff did it give?
**A.** Its koff is 0.0048 s⁻¹.

B8: anti-IL-6 Fab, heavy chain F32G (Fab, V domains shown)
VH: EVQLVESGGGLVQPGGSLRLSCAASGFTFSPGAMSWVRQAPGKGLEWVAKISPGGSWTYYSDTVTGRFTFSLDTSKSTAYLQMNSLRAEDTAVYYCARQLWGYYALDIWGQGTLVTVSS
VL: DIQLTQSPSSLSASVGDRVTITCSASISVSYMYWYQQKPGKAPKLLIYDMSNLASGVPSRFSGSGSGTDFTLTISSLQPEDFATYYCMQWSGYPYTFGQGTKVEIK
notes: see m39
**Q.** Which koff does the source give for B8 here?
**A.** The koff was 0.00525 s⁻¹.

B9: anti-IL-6 Fab, heavy chain I108F (Fab, V domains shown)
VH: EVQLVESGGGLVQPGGSLRLSCAASGFTFSPFAMSWVRQAPGKGLEWVAKISPGGSWTYYSDTVTGRFTFSLDTSKSTAYLQMNSLRAEDTAVYYCARQLWGYYALDFWGQGTLVTVSS
VL: DIQLTQSPSSLSASVGDRVTITCSASISVSYMYWYQQKPGKAPKLLIYDMSNLASGVPSRFSGSGSGTDFTLTISSLQPEDFATYYCMQWSGYPYTFGQGTKVEIK
notes: see m39
**Q.** Which koff does the source give for B9 here?
**A.** Its koff is 0.0034 s⁻¹.

B10: anti-IL-6 Fab, heavy chain F29Y (Fab, V domains shown)
VH: EVQLVESGGGLVQPGGSLRLSCAASGFTYSPFAMSWVRQAPGKGLEWVAKISPGGSWTYYSDTVTGRFTFSLDTSKSTAYLQMNSLRAEDTAVYYCARQLWGYYALDIWGQGTLVTVSS
VL: DIQLTQSPSSLSASVGDRVTITCSASISVSYMYWYQQKPGKAPKLLIYDMSNLASGVPSRFSGSGSGTDFTLTISSLQPEDFATYYCMQWSGYPYTFGQGTKVEIK
notes: see m39
**Q.** With B10 as the binder, how does the koff read?
**A.** Its koff is 0.00511 s⁻¹.

B11: anti-IL-6 Fab, heavy chain F27R (Fab, V domains shown)
VH: EVQLVESGGGLVQPGGSLRLSCAASGRTFSPFAMSWVRQAPGKGLEWVAKISPGGSWTYYSDTVTGRFTFSLDTSKSTAYLQMNSLRAEDTAVYYCARQLWGYYALDIWGQGTLVTVSS
VL: DIQLTQSPSSLSASVGDRVTITCSASISVSYMYWYQQKPGKAPKLLIYDMSNLASGVPSRFSGSGSGTDFTLTISSLQPEDFATYYCMQWSGYPYTFGQGTKVEIK
notes: see m39
**Q.** For B11, which koff is on record?
**A.** Its koff is 0.00394 s⁻¹.

B12: anti-IL-6 Fab, heavy chain M34W (Fab, V domains shown)
VH: EVQLVESGGGLVQPGGSLRLSCAASGFTFSPFAWSWVRQAPGKGLEWVAKISPGGSWTYYSDTVTGRFTFSLDTSKSTAYLQMNSLRAEDTAVYYCARQLWGYYALDIWGQGTLVTVSS
VL: DIQLTQSPSSLSASVGDRVTITCSASISVSYMYWYQQKPGKAPKLLIYDMSNLASGVPSRFSGSGSGTDFTLTISSLQPEDFATYYCMQWSGYPYTFGQGTKVEIK
notes: see m39
**Q.** With B12 as the binder, how does the koff read?
**A.** Its koff is 0.00397 s⁻¹.

B13: anti-IL-6 Fab, heavy chain F27S (Fab, V domains shown)
VH: EVQLVESGGGLVQPGGSLRLSCAASGSTFSPFAMSWVRQAPGKGLEWVAKISPGGSWTYYSDTVTGRFTFSLDTSKSTAYLQMNSLRAEDTAVYYCARQLWGYYALDIWGQGTLVTVSS
VL: DIQLTQSPSSLSASVGDRVTITCSASISVSYMYWYQQKPGKAPKLLIYDMSNLASGVPSRFSGSGSGTDFTLTISSLQPEDFATYYCMQWSGYPYTFGQGTKVEIK
notes: see m39
**Q.** Which koff does the source give for B13 here?
**A.** The koff was 0.00393 s⁻¹.

B14: anti-IL-6 Fab, heavy chain G66D (Fab, V domains shown)
VH: EVQLVESGGGLVQPGGSLRLSCAASGFTFSPFAMSWVRQAPGKGLEWVAKISPGGSWTYYSDTVTDRFTFSLDTSKSTAYLQMNSLRAEDTAVYYCARQLWGYYALDIWGQGTLVTVSS
VL: DIQLTQSPSSLSASVGDRVTITCSASISVSYMYWYQQKPGKAPKLLIYDMSNLASGVPSRFSGSGSGTDFTLTISSLQPEDFATYYCMQWSGYPYTFGQGTKVEIK
notes: see m39
**Q.** B14 was tested. Which koff did it give?
**A.** Its koff is 0.00607 s⁻¹.

B15: anti-IL-6 Fab, heavy chain G26R (Fab, V domains shown)
VH: EVQLVESGGGLVQPGGSLRLSCAASRFTFSPFAMSWVRQAPGKGLEWVAKISPGGSWTYYSDTVTGRFTFSLDTSKSTAYLQMNSLRAEDTAVYYCARQLWGYYALDIWGQGTLVTVSS
VL: DIQLTQSPSSLSASVGDRVTITCSASISVSYMYWYQQKPGKAPKLLIYDMSNLASGVPSRFSGSGSGTDFTLTISSLQPEDFATYYCMQWSGYPYTFGQGTKVEIK
notes: see m39
**Q.** With B15 as the binder, how does the koff read?
**A.** The koff was 0.00381 s⁻¹.

B16: anti-IL-6 Fab, heavy chain S35H (Fab, V domains shown)
VH: EVQLVESGGGLVQPGGSLRLSCAASGFTFSPFAMHWVRQAPGKGLEWVAKISPGGSWTYYSDTVTGRFTFSLDTSKSTAYLQMNSLRAEDTAVYYCARQLWGYYALDIWGQGTLVTVSS
VL: DIQLTQSPSSLSASVGDRVTITCSASISVSYMYWYQQKPGKAPKLLIYDMSNLASGVPSRFSGSGSGTDFTLTISSLQPEDFATYYCMQWSGYPYTFGQGTKVEIK
notes: see m39
**Q.** Which koff does the source give for B16 here?
**A.** Its koff is 0.00392 s⁻¹.

B17: anti-IL-6 Fab, heavy chain S30W (Fab, V domains shown)
VH: EVQLVESGGGLVQPGGSLRLSCAASGFTFWPFAMSWVRQAPGKGLEWVAKISPGGSWTYYSDTVTGRFTFSLDTSKSTAYLQMNSLRAEDTAVYYCARQLWGYYALDIWGQGTLVTVSS
VL: DIQLTQSPSSLSASVGDRVTITCSASISVSYMYWYQQKPGKAPKLLIYDMSNLASGVPSRFSGSGSGTDFTLTISSLQPEDFATYYCMQWSGYPYTFGQGTKVEIK
notes: see m39
**Q.** B17 was tested. Which koff did it give?
**A.** The koff was 0.00369 s⁻¹.

B18: anti-IL-6 Fab, heavy chain F27V (Fab, V domains shown)
VH: EVQLVESGGGLVQPGGSLRLSCAASGVTFSPFAMSWVRQAPGKGLEWVAKISPGGSWTYYSDTVTGRFTFSLDTSKSTAYLQMNSLRAEDTAVYYCARQLWGYYALDIWGQGTLVTVSS
VL: DIQLTQSPSSLSASVGDRVTITCSASISVSYMYWYQQKPGKAPKLLIYDMSNLASGVPSRFSGSGSGTDFTLTISSLQPEDFATYYCMQWSGYPYTFGQGTKVEIK
notes: see m39
**Q.** B18 was tested. Which koff did it give?
**A.** Its koff is 0.00405 s⁻¹.

B19: anti-IL-6 Fab, heavy chain G26S (Fab, V domains shown)
VH: EVQLVESGGGLVQPGGSLRLSCAASSFTFSPFAMSWVRQAPGKGLEWVAKISPGGSWTYYSDTVTGRFTFSLDTSKSTAYLQMNSLRAEDTAVYYCARQLWGYYALDIWGQGTLVTVSS
VL: DIQLTQSPSSLSASVGDRVTITCSASISVSYMYWYQQKPGKAPKLLIYDMSNLASGVPSRFSGSGSGTDFTLTISSLQPEDFATYYCMQWSGYPYTFGQGTKVEIK
notes: see m39
**Q.** B19 was tested. Which koff did it give?
**A.** The koff was 0.00375 s⁻¹.

B20: anti-IL-6 Fab, heavy chain S30G (Fab, V domains shown)
VH: EVQLVESGGGLVQPGGSLRLSCAASGFTFGPFAMSWVRQAPGKGLEWVAKISPGGSWTYYSDTVTGRFTFSLDTSKSTAYLQMNSLRAEDTAVYYCARQLWGYYALDIWGQGTLVTVSS
VL: DIQLTQSPSSLSASVGDRVTITCSASISVSYMYWYQQKPGKAPKLLIYDMSNLASGVPSRFSGSGSGTDFTLTISSLQPEDFATYYCMQWSGYPYTFGQGTKVEIK
notes: see m39
**Q.** For B20, which koff is on record?
**A.** The koff was 0.00377 s⁻¹.

B21: anti-IL-6 Fab, heavy chain L106F (Fab, V domains shown)
VH: EVQLVESGGGLVQPGGSLRLSCAASGFTFSPFAMSWVRQAPGKGLEWVAKISPGGSWTYYSDTVTGRFTFSLDTSKSTAYLQMNSLRAEDTAVYYCARQLWGYYAFDIWGQGTLVTVSS
VL: DIQLTQSPSSLSASVGDRVTITCSASISVSYMYWYQQKPGKAPKLLIYDMSNLASGVPSRFSGSGSGTDFTLTISSLQPEDFATYYCMQWSGYPYTFGQGTKVEIK
notes: see m39
**Q.** Which koff does the source give for B21 here?
**A.** Its koff is 0.00601 s⁻¹.
